Test results: US20130166268

System: full-length rat proMMP9(1-708) (SEQ ID NO:11)
Sequence (chain, as listed by the source): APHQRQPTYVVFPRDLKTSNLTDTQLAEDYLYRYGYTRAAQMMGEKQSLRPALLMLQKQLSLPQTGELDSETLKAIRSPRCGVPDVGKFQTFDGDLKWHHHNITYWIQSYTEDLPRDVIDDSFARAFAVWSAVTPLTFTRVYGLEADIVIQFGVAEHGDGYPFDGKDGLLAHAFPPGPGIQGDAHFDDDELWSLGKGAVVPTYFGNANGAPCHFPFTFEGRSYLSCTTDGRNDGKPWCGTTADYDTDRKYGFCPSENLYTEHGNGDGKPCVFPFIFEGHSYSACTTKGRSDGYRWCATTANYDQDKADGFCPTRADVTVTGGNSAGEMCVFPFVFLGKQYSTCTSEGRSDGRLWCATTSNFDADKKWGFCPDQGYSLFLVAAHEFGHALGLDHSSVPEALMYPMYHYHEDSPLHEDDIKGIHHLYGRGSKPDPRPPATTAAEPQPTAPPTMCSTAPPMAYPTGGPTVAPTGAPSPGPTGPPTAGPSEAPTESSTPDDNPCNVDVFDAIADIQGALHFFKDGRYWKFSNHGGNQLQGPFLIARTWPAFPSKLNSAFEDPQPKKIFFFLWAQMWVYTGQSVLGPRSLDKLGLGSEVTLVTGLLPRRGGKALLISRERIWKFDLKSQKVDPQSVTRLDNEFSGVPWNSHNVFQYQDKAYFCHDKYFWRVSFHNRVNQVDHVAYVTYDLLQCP

Sequence of human catalytic MMP3, MMP3(100-265) (SEQ ID NO:8) (chain, as listed by the source): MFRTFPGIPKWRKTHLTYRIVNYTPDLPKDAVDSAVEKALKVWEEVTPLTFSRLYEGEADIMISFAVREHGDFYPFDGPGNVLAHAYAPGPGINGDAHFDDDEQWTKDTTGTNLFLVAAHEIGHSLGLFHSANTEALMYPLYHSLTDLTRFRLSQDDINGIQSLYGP

human catalytic MMP3, MMP3(100-265) (SEQ ID NO:8)
conversion of proMMP9 to catalytic MMP9 (Western blot standard): full-length rat proMMP9(1-708) (SEQ ID NO:11) converted to catalytic rat MMP9 by catalytic MMP3
